No end group written: not given here.
Target: T1, 6×His标签 (组氨酸标签) (also: coupled to ovalbumin carrier, site not given here)
T1 construct: also called 多组氨酸标签; hexa组氨酸标签
T1 peptide: HHHHHH
Test: indirect phage-ELISA of phage-displayed clones after three rounds of solid-phase panning on 6×His-OVA

B1: 针对His标签的单域重链抗体 (特异性识别组氨酸标签的纳米抗体) (VHH)
VHH: QVQLVESGGGLVQPGQSLRLSCSAPGFTFNNFGLAWFRQAPGKEREEVACIRSHGVRTHYGASVEGRFTISRDSDNKALWLQMNDLKPEDSAVYYCAADPVPANFDTCVHNGYDYWGLGTQVTVSS
notes: also called 抗His标签单域重链抗体
  binding result: binds

From patent publication CN106146656A (UNIV BEIJING, dated 2016)
